This is an account of results in patent US20240158497A1.

In experiment [1] the target is extracellular domain of human LEPR, GPI-anchored, on HEK293/hLEPR-GPI cells (human) (UniProt P48357). The experiment can be described thus: FACS, secondary antibody alone on HEK293/hLEPR-GPI cells, no Leptin. (In flow cytometry, cells or beads pass a laser one at a time.)
For experiment [2] the target is unchanged. The experiment can be described thus: FACS, secondary antibody alone on HEK293/hLEPR-GPI cells, 1 µM Leptin.
Experiment [3] concerns the target full length human GP130 (L2V natural variant) on HEK293/Stat3-luc/gp130-2X Sort cells (human) (UniProt P40189). As to the kind of experiment: FACS, secondary antibody alone on HEK293/gp130 2X Sort cells.
The target of experiment [4] is wild-type human GP130 on HEK293.STAT3.Luc.GP130 reporter cells (human) (UniProt P40189). The experiment can be described thus: cell-based or functional assay.
Chain of wild-type human GP130 on HEK293.STAT3.Luc.GP130 reporter cells (human) (P40189 23-918): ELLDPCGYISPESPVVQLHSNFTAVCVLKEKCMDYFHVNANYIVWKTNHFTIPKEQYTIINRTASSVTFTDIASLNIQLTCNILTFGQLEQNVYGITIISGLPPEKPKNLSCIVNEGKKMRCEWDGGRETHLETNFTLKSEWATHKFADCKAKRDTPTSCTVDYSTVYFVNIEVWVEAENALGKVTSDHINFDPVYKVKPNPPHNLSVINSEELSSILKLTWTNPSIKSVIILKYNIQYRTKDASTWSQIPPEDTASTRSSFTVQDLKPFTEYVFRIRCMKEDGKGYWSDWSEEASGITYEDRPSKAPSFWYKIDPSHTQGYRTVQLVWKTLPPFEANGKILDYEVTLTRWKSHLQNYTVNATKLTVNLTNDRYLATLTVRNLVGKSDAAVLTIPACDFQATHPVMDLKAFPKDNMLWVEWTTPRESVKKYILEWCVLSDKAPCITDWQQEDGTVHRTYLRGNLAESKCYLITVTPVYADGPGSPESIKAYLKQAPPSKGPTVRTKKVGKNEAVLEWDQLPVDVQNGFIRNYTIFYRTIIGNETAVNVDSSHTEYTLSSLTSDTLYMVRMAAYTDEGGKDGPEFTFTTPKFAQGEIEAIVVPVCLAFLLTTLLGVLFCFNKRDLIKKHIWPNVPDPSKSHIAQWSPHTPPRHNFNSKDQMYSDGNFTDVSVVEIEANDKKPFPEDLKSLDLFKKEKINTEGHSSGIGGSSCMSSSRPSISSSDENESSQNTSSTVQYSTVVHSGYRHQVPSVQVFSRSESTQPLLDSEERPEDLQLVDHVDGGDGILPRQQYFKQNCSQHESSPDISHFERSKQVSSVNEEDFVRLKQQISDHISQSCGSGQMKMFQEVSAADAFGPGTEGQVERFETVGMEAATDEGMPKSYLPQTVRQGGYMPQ
In experiment [5] the target is gp130 expressed endogenously on IMR-32/STAT3-Luc cells (human) (UniProt P40189). The experiment can be described thus: cell-based or functional assay.
Chain of gp130 expressed endogenously on IMR-32/STAT3-Luc cells (human) (P40189 23-918): as above
Experiment [6] concerns the target extracellular domain of human LEPR, GPI-anchored, on HEK293/hLEPR-GPI cells (human) (UniProt P48357). The experiment can be described thus: FACS, 200 nM antibody on HEK293/hLEPR-GPI cells, 1 µM Leptin.
Experiment [7] shares this target. As to the kind of experiment: FACS, 200 nM antibody on HEK293/hLEPR-GPI cells, no Leptin.
Experiment [8] has as its target mutant human LEPR (Y1141F) on HEK293.STAT3.Luc.GP130.hLEPR (Y1141F) cells (human) (UniProt P48357). The experiment can be described thus: cell-based or functional assay.
The target in experiment [9] is full length human GP130 (L2V natural variant) on HEK293/Stat3-luc/gp130-2X Sort cells (human) (UniProt P40189). The experiment can be described thus: FACS, 200 nM antibody on HEK293/gp130 2X Sort cells.

Values joined by “and” are separate entries in the source; they are usually repeats but may differ in a detail not shown here. Equal values may be shown once.

Chain of mutant human LEPR (Y1141F) on HEK293.STAT3.Luc.GP130.hLEPR (Y1141F) cells (human) (P48357 22-1165 Y1141F): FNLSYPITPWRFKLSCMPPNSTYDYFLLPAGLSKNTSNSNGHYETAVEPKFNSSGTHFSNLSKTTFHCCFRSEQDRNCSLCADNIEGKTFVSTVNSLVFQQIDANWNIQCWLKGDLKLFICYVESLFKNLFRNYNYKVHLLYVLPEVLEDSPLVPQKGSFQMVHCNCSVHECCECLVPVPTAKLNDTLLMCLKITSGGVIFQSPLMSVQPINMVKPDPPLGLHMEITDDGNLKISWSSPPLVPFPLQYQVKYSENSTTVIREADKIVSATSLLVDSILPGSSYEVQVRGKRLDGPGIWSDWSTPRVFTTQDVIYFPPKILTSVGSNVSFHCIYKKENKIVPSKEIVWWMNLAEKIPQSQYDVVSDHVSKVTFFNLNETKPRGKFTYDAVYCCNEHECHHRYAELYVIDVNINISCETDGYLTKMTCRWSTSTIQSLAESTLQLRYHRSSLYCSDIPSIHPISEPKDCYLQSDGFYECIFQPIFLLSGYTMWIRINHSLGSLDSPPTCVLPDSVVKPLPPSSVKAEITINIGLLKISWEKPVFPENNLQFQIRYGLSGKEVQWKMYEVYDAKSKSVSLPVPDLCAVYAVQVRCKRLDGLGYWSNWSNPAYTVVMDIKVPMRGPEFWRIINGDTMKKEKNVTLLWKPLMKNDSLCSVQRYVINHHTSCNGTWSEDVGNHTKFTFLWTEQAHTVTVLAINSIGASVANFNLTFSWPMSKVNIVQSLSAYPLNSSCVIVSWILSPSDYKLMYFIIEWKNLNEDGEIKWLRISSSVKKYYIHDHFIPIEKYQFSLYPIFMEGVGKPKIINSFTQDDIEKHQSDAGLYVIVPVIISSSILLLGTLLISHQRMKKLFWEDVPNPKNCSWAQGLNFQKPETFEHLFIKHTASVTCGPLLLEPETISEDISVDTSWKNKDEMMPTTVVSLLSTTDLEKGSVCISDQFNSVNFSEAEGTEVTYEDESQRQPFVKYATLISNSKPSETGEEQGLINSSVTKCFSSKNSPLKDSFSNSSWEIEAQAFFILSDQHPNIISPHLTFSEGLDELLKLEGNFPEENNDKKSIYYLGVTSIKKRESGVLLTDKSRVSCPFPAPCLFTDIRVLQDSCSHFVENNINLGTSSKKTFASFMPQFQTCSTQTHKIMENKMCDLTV
Chain of extracellular domain of human LEPR, GPI-anchored, on HEK293/hLEPR-GPI cells (human) (P48357 22-839 limits assumed): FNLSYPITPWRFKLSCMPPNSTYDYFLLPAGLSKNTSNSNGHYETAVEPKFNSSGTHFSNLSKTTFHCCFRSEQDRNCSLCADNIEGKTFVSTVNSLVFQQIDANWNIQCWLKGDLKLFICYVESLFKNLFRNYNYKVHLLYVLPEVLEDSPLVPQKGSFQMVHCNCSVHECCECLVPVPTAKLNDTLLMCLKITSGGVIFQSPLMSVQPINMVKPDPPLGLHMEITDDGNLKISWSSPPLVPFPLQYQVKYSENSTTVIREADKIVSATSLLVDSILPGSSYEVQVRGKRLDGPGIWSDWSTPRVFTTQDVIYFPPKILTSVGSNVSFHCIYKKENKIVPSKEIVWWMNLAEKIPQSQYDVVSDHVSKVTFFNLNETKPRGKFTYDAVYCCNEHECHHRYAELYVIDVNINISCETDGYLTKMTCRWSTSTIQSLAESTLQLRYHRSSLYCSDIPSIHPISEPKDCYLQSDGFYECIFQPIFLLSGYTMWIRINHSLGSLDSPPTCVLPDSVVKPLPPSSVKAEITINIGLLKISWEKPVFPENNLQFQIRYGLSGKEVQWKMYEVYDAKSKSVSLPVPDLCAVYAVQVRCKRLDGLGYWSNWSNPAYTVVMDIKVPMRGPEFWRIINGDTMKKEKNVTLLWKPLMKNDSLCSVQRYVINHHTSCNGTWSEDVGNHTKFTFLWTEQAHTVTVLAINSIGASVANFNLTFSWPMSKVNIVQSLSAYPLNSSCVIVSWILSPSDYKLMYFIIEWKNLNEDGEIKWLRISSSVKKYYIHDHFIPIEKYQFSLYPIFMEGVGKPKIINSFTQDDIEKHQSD

For the substance “Alexa Fluor-647 conjugated secondary antibody (Jackson ImmunoResearch Laboratories Inc., #109-607-003)”, the Binding Ratio, normalized to unstained sample (FL4-A) in [1] came out at 3 fold; in [2], 2 fold; in experiment [3], 1 fold.
In experiment [4], “human OSM (R&D Systems, #295-OM/CF) (from UniProt P13725 26-221) (ligand)” registered an EC50 (M), STAT3-luciferase activation of HEK293.STAT3.Luc.GP130.hLEPR (Y1141F) cells of 5.92e-10 M; an EC50 (M), STAT3-luciferase activation of HEK293.STAT3.Luc.GP130.hLEPR (a) cells of 1.21e-10 M; a Percentage activation as compared to hOSM of 100%; a Percentage maximum activation as compared to hOSM of 100%.
The substance “human Oncostatin M (from UniProt P13725 26-221) (ligand)” had an EC50 of activation of IMR-32/STAT3-luc cells (STAT3-luciferase) in [5] of 0.054 nM.
As for Isotype Control (antibody), the Binding Ratio, normalized to unstained sample (FL4-A) in experiment [6] came out at 3 fold; in experiment [7], 3 fold; in [9], 2 fold. The Assay Buffer, % activity in [4] and in experiment [8] was 0% throughout. Besides, the RLU, Assay Buffer (no soluble protein) in experiment [4] was 12200 RLU and 12100 RLU; in [8], 12200 RLU and 12100 RLU.
